Reference: patent US20130116417

Test system: monoclonal antibody 2G12 (anti-HIV gp120)
Test: filter

Sequence | Kd (each U is 5-ethynyl-dU glycosylated with Man4-azide by CuAAAC click (10 sites), T in the primer region unmodified, 20 mM Tris pH 7.5, 100 mM NaCl, 2 mM MgSO4, 0.02% Tween-20, room temperature, 3 h, after 7 SELMA rounds) [µM] | binding (library template (-)-strand listed, assayed (+)-strand has 5-ethynyl-dU in place of T, glycosylated with Man4-azide, initial random library, less than 3% bound) [% bound]
CACCAAATACGGGTACGGGCCCGGCUGUUUCAGAUGCUGUAAGUAAGGUGACUGCGGAACAACAG [Man4-16 (clone 16 glyco-DNA)] | 0.22 | 
CTGTTGTTCCGCAGTCACCTTNNNNNNNNNNNNNNNNNNNNNNNNNCCCGTACCCGTATTTGGTGGCAAGGATGACAAGGATTTTATATTTTATATTTTTATTTTATTATCGGGTACGGG [initial random glyco-DNA library] |  | < 3
